Experimental data taken from patent EP3025729B1 (Glaxo Group Limited, dated 2018).
Substitutions are numbered along the chain they refer to.

B1: SAP-K H1L0 humanised antibody (antibody, V domains shown)
VH: QVQLVQSGAEVKKPGSSVKVSCKASGYTFTSYWMHWVRQAPGQGLEWMGMIHPNSVNTNYNEKFKSRVTITADKSTSTAYMELSSLRSEDTAVYYCARRNDYYWYFDVWGQGTLVTVSS
VL: DIQMTQSPSSLSASVGDRVTITCKASQNVNSNVAWYQQKPGKAPKLLIYSASYRYSGVPSRFSGSGSGTDFTLTISSLQPEDFATYYCQQCNNYPFTFGQGTKLEIK
B2: SAP-K H0L0 humanised antibody (antibody, V domains shown)
VH: B1 VH with Y27G, T30S
VL: B1 VL
notes: also called SAP-K HOLO
B3: SAP-K H2L0 humanised antibody (antibody, V domains shown)
VH: B1 VH with M48I, V68A
VL: B1 VL

Tests used:
[1] = target: T1, human serum amyloid P component (SAP) (human, UniProt P02743 20-223); experiment: ELISA, human SAP directly immobilised at 1 µg/mL
T1 construct: Purified from human material; In some assays it stood denatured (reduced SDS-PAGE); this is said under assay; also called human SAP; homo sapiens SAP

cynomologus monkey SAP = target: T2, cynomologus monkey SAP (cynomolgus monkey, UniProt A0A7N9DA00 20-223); experiment: Biacore, cyno SAP amine-coupled on C1 chip, culture supernatant
T2 construct: also called cyno SAP; cynomolgus monkey serum amyloid P component
T2 sequence (A0A7N9DA00 entry or part of it): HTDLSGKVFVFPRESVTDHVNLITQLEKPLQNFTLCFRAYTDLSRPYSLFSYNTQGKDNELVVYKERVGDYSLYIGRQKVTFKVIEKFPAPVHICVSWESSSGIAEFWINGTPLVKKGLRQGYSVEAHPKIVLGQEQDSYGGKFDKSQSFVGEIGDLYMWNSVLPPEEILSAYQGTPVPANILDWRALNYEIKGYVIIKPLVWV

T1 sequence (P02743 20-223, form in doubt): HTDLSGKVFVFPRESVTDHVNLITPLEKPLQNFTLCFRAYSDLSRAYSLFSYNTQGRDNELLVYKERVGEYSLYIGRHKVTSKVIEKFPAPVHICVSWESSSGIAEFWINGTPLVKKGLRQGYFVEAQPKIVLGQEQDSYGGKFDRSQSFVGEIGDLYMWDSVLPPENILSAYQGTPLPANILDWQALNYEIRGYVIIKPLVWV

| Binder | fold loss of human SAP binding activity compared to SAP-K chimera [1] [fold] | binding result (cynomologus monkey SAP) |
| --- | --- | --- |
| B1 | ~2 | – |
| B2 | ~2 | no binding |
| B3 | ~2 | – |
